Experimental data: paper PMC6736755

Target: H-2 I-A^d class II MHC molecule (mouse)
Experiment: radioligand binding

IC50: 2 nM
Substance: OVA323–339 peptide (WT)
